This note sets out measurements from article PMC4298132.

Square brackets hold non-standard residues; d marks the D form. Ends that are not written are not given here. pS = N[C@@H](COP(=O)(O)O)C(=O)O

The target of test [1] is His-SUMO-tagged MLL3 SET domain (UniProt Q8NEZ4). Briefly: pull-down.
In test [2] the target is Ash2L SPRY domain (UniProt Q9UBL3). Briefly: isothermal titration calorimetry. The note with it: reference: unmodified RbBP5 344-357 peptide; sites S350. For orientation: Isothermal titration calorimetry measures the heat released or taken up as one component is titrated into another.
UniProt Q9UBL3, sequence (Q9UBL3 380-598): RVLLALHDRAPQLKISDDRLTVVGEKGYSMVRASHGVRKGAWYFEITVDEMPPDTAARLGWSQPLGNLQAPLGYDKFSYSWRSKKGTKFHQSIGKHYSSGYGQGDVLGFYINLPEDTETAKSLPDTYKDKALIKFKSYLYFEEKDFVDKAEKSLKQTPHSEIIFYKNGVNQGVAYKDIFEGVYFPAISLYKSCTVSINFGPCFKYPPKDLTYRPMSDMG
Test [3] has as its target Ash2L SPRY domain. The experiment in a line: ITC.

UniProt Q8NEZ4, sequence (Q8NEZ4 4771-4887): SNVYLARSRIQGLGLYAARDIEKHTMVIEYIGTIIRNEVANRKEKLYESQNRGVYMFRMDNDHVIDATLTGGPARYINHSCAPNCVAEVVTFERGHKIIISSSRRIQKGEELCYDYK
RbBP5 344-357, sequence (Q15291 whole entry, looked up, change not shown, the tested form may be a part): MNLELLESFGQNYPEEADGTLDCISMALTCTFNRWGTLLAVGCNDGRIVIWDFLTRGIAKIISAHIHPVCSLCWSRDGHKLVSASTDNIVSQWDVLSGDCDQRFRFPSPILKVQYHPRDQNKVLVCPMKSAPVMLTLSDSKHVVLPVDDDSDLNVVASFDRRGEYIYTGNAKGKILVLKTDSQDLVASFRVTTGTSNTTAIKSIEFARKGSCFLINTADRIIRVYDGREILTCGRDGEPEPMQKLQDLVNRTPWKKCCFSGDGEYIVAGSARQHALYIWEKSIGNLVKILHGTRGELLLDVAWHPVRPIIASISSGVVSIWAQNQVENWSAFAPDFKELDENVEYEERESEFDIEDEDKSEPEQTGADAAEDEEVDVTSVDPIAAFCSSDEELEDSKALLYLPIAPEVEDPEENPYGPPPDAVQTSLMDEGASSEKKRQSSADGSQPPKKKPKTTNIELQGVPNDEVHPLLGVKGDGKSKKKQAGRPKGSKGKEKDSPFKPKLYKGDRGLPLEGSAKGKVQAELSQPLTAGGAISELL

As for “Ash2L/RbBP5^phos heterodimer (from UniProt Q9UBL3 1-628; Q15291 1-538) (complex)”, in test [1], the fold increase in binding against Ash2L/RbBP5 was 5 fold.
On to “RbBP5 344-357 (from UniProt Q15291) pS350 RbBP5 344-357 peptide”, for which, in the test with Ash2L SPRY domain [2], the fold change entry is recorded as “stronger”.
With EYEERE[pS]EFDIEDE [phosphorylated peptide RbBP5 344-357 (phospho-S350), Q15291 344-357], in the test with Ash2L SPRY domain [3], the fold higher affinity against the unmodified peptide was found to be 15 fold.
